Test results as given in the supplement of paper PMC10567573.
± gives the standard deviation.

Assay: protein stability index of a GFP-peptide fusion (GPS, HEK-293T) (PSI 1-6); higher = more stable
[1] = treatment: DMSO, c terminus: a fixed tail appended
[2] = treatment: MLN4924 1 uM, 8 h, c terminus: a fixed tail appended
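Note: 24-mer peptide tiles fused after GFP, lentivirally expressed, FACS-sorted into six equal bins by GFP/DsRed ratio, decoded by Illumina sequencing, PSI is the read-weighted mean bin number.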

LRPQVVTDDDGQAPEAKDGSSFSG [APMAP]
protein stability index [1]: 5.22 ± 0.26
protein stability index [2]: 5.31 ± 0.15

LRSARGSRGGTRGWLPSHEGHLDD [RBMY1A1]
protein stability index [1]: 4.7 ± 0.35
protein stability index [2]: 4.78 ± 0.17

LSASQKALKEKEKASWSSLSMDEK [COX4I1]
protein stability index [1]: 4.61 ± 0.28
protein stability index [2]: 4.84 ± 0.22

LSCLGQQQQEPPLAMGTVSLGQLP [PLAGL1]
protein stability index [1]: 3.75 ± 0.32
protein stability index [2]: 3.59 ± 0.5

LSDLEDLEEEEEEEEEAEDEEVVA [IRX6]
protein stability index [1]: 5.63 ± 0.23
protein stability index [2]: 5.81 ± 0.077

LSLESSPDAPDHTSETSHSPLYAD [PLEKHN1]
protein stability index [1]: 5.47 ± 0.16
protein stability index [2]: 5.38 ± 0.24

LSSVPSEAQISDPFAPEPTPPTTT [SNAP91]
protein stability index [1]: 5.38 ± 0.079
protein stability index [2]: 5.3 ± 0.2

LSTIEELIKDAIVSTQPAMMVNLR [C2CD2L]
protein stability index [1]: 2.2 ± 0.29
protein stability index [2]: 2.35 ± 0.17

LSTLAGIRVMVHGRNHTPFLGHHS [SCNN1D]
protein stability index [1]: 2.69 ± 0.28
protein stability index [2]: 2.64 ± 0.23

LTASGDGTCALWDVESGQLLQSFH [GNB5]
protein stability index [1]: 2.67 ± 0.36
protein stability index [2]: 2.76 ± 0.24

LTASRQSFRMAMGNPSEFFVDVM [DVL3]
protein stability index (treatment: DMSO, c terminus: native): 2.41 ± 0.65
protein stability index (treatment: MLN4924 1 uM, 8 h, c terminus: native): 2.54 ± 0.85

LTCDALTELLAKITNTDVDCLKAC [CCND2]
protein stability index [1]: 2.37 ± 0.28
protein stability index [2]: 2.34 ± 0.27

LTDAVAPGNKGRGQRGNTESKTDG [TCF25]
protein stability index [1]: 5.5 ± 0.27
protein stability index [2]: 5.48 ± 0.45

LTDAYGPPSNFLEIDIFNPQTVGV [SNX12]
protein stability index [1]: 2.87 ± 0.39
protein stability index [2]: 3.19 ± 0.39

LTEHQRIHTGIKPHQCSECGRAFS [ZNF649]
protein stability index [1]: 3.58 ± 0.064
protein stability index [2]: 3.69 ± 0.38

LTFHRHPVAQSTDGIRGKVGHARG [SPSB4]
protein stability index [1]: 3.99 ± 0.32
protein stability index [2]: 3.97 ± 0.26

LTVLQRLDVWLSGGNDLCVWNRKL [WDR41]
protein stability index [1]: 2.17 ± 1
protein stability index [2]: 2.39 ± 0.32

LVALAEQHAVQELTKAATSGVGID [RHOBTB1]
protein stability index [1]: 4.08 ± 0.29
protein stability index [2]: 4.18 ± 0.19

LVEDMVSQEEAQGLPSSELDAVEN [ZNF24]
protein stability index [1]: 5.5 ± 0.48
protein stability index [2]: 5.43 ± 0.15

LVGDDAACIAYIRLTQYMDGSGMP [CAMK2D]
protein stability index [1]: 2.13 ± 0.91
protein stability index [2]: 1.66 ± 0.13

LVKHKRIHSREKRGDSVKVENPST [ZNF649]
protein stability index [1]: 4.41 ± 0.32
protein stability index [2]: 4.54 ± 0.48

LVTIARKASLWQFLSSEKQICGTH [TRIM43]
protein stability index [1]: 2.06 ± 0.34
protein stability index [2]: 2.17 ± 0.45

LVTQQLPHLMPSNCGLEEKIANLG [S100A14]
protein stability index [1]: 2.43 ± 0.68
protein stability index [2]: 3.05 ± 0.55

LVVALDVDATLEHVQDPQNTVKVQ [INTS4]
protein stability index [1]: 3.03 ± 0.14
protein stability index [2]: 3.21 ± 0.2

LWDRAYVRLKPALQRLDFSVRGYM [RETREG3]
protein stability index [1]: 2.5 ± 0.43
protein stability index [2]: 2.69 ± 0.65

LWRYRTITFSGRPSRVHASEVESA [FBXO39]
protein stability index [1]: 2.79 ± 0.27
protein stability index [2]: 3 ± 0.33

LWVQGDIFRSKLKNRPSSEGSINK [CDC14A]
protein stability index [1]: 2.62 ± 0.19
protein stability index [2]: 2.92 ± 0.62

LYAKMIQKLADLRSLNEEHSKQYR [VDR]
protein stability index [1]: 2.15 ± 0.41
protein stability index [2]: 2.19 ± 0.22

LYGFLLTFGFITMTPQLFINYKLK [CLPTM1]
protein stability index [1]: 3.12 ± 0.64
protein stability index [2]: 3.44 ± 0.32

LYLIMEFLPGGDMMTLLMKKDTLT [STK38L]
protein stability index [1]: 3.03 ± 0.13
protein stability index [2]: 2.94 ± 0.81

LYVSGLPKTMSQKEMEQLFSQYGR [ELAVL3]
protein stability index [1]: 2.55 ± 0.14
protein stability index [2]: 2.66 ± 0.39

LYYSNFVLALEERFGVRPKVTGYL [MFSD9]
protein stability index [1]: 2.76 ± 0.86
protein stability index [2]: 2.91 ± 0.79

MAEESSCTRDCMSFSVLNWDQVSR [TENT5C]
protein stability index [1]: 2.71 ± 0.29
protein stability index [2]: 2.99 ± 0.22

MALTPVVVTLWYRAPEVLLQSTYA [CDK4]
protein stability index [1]: 3.04 ± 0.41
protein stability index [2]: 3.06 ± 0.45

MASSAAGCVVIVGSGVIGRSWAML [CRYL1]
protein stability index [1]: 3.7 ± 0.13
protein stability index [2]: 2.89 ± 1.8

MAVRLAGGLQKMVALLNKTNVKFL [CTNNB1]
protein stability index [1]: 2.871 ± 0.006
protein stability index [2]: 2.63 ± 0.76

MDIESLSVFTEPNRHFYREMQSFS [FBXO33]
protein stability index [1]: 2.39 ± 0.33
protein stability index [2]: 2.3 ± 0.24

MEEDIDTRKINNSFLRDHSYATEA [PPP2R2B]
protein stability index [1]: 4.77 ± 0.19
protein stability index [2]: 4.72 ± 0.12

MEEFRRSYSRLCRESGAEPQEAVL [LRRC45]
protein stability index [1]: 3.77 ± 0.22
protein stability index [2]: 3.84 ± 0.27

MENVPKENKVVEKAPVQNEAPALG [BEX5]
protein stability index [1]: 5.33 ± 0.19
protein stability index [2]: 5.46 ± 0.16

MERTGGIGDSRPPSFHPHAGGGSQ [DVL3]
protein stability index [1]: 4.5 ± 0.18
protein stability index [2]: 4.69 ± 0.16

MGFVPHNGSLYGQASSERLGLDNR [ADAMTSL2]
protein stability index [1]: 3.59 ± 0.38
protein stability index [2]: 3.66 ± 0.35

MGPDEYEEMEEEEEEEEEEDEDDD [FBXO3]
protein stability index [1]: 5.42 ± 0.22
protein stability index [2]: 5.47 ± 0.14

MGVVSLVFLIIYYLDPSVLSGVSC [ARL6IP1]
protein stability index [1]: 3.18 ± 0.51
protein stability index [2]: 3.13 ± 0.33

MITLSEAYIQIWKRRDNDETNQQG [USP39]
protein stability index [1]: 3.15 ± 0.31
protein stability index [2]: 3.31 ± 0.38

MKQLQQQQHSDKTSLQGLTGTPLV [ISL2]
protein stability index [1]: 4.01 ± 0.35
protein stability index [2]: 4.2 ± 0.23

MMEKILGPIPSHMIHRTRKQKYFY [CLK3]
protein stability index [1]: 2.27 ± 0.84
protein stability index [2]: 2.12 ± 0.3

MMHGRSYSLASGAGGGGSKGNSLK [RAB40C]
protein stability index [1]: 4.32 ± 0.061
protein stability index [2]: 4.51 ± 0.15

MNKSENLLFAGSSLASQVHAAAVN [INVS]
protein stability index [1]: 3.11 ± 0.24
protein stability index [2]: 3.35 ± 0.34

MPLEQRSQHCKPEEGLEARGEALG [MAGEA3]
protein stability index [1]: 5.34 ± 0.34
protein stability index [2]: 5.39 ± 0.14

MQNSNECKRNFVAVYDGSSSVEDL [NETO1]
protein stability index [1]: 4.59 ± 0.066
protein stability index [2]: 4.68 ± 0.22

MREQYEAMAERNRRDAEEWFHAKS [KRT13]
protein stability index [1]: 4.81 ± 0.28
protein stability index [2]: 4.75 ± 0.17

MSLRNRLSKSRENPEEDEDQRNPA [SOAT1]
protein stability index [1]: 5.58 ± 0.14
protein stability index [2]: 5.45 ± 0.14

MSQRNLNAKTEQGPTGVTMTSNPI [CDK11A]
protein stability index [1]: 4.53 ± 0.23
protein stability index [2]: 4.64 ± 0.17

MTSTGQDSTTTRQRRSRQNPQSPP [HDAC6]
protein stability index [1]: 5.46 ± 0.14
protein stability index [2]: 5.4 ± 0.12

MTTTFLQTSSSTFGGGSTRGGSLL [KRT15]
protein stability index [1]: 2.8 ± 0.35
protein stability index [2]: 2.97 ± 0.46

MVGGLKRKHSDLEEEEERWEWSPA [SERTAD3]
protein stability index [1]: 4.23 ± 0.4
protein stability index [2]: 4.56 ± 0.16

MVTQILGAMESQVGGGPAGPALPN [ELAVL3]
protein stability index [1]: 2.69 ± 0.098
protein stability index [2]: 3.01 ± 0.53

NAAHLGDKRRDLAHLAAEVEGKCL [TRIM39]
protein stability index [1]: 4.46 ± 0.22
protein stability index [2]: 4.5 ± 0.16

NCIHRDIKPENILITKQGIIKICD [CDKL4]
protein stability index [1]: 2.51 ± 0.39
protein stability index [2]: 3.28 ± 0.24

NDPSVNSQAQETTIIASNAEEAEI [TOR1AIP2]
protein stability index [1]: 5.5 ± 0.13
protein stability index [2]: 5.59 ± 0.34

NEHSAHCPHTPEFSVTGGTEEKSS [RPAIN]
protein stability index [1]: 5.44 ± 0.24
protein stability index [2]: 5.28 ± 0.15

NETVNSIFAQGAPRSSLAESFFVD [ADAMTSL2]
protein stability index [1]: 3.77 ± 0.086
protein stability index [2]: 3.86 ± 0.073

NFDNPWNFQNIPKETELPFPKQIL [MIA2]
protein stability index [1]: 2.74 ± 0.27
protein stability index [2]: 2.9 ± 0.4

NFVYNSPRGYFHTFAGDTCQVALN [WASL]
protein stability index [1]: 2.24 ± 0.44
protein stability index [2]: 2.27 ± 0.64

NGSISSAGNSSRNSSQSSSDGSCK [BTBD10]
protein stability index [1]: 5.01 ± 0.23
protein stability index [2]: 5.2 ± 0.16

NGSYLELSSDRVANSSSEAPFPNV [ADAMTSL2]
protein stability index [1]: 4.52 ± 0.18
protein stability index [2]: 4.28 ± 0.15

NHGLVSVGESVEEAFYYIHNLVVA [ADD1]
protein stability index [1]: 2.24 ± 0.31
protein stability index [2]: 2.1 ± 0.58

NINDRIKELGTLIPKSSDPEMRWN [TFE3]
protein stability index [1]: 3.58 ± 0.33
protein stability index [2]: 3.77 ± 0.17

NIYVHDLLTFQQITTVSKAKGASL [VPS39]
protein stability index [1]: 2.32 ± 0.3
protein stability index [2]: 2.27 ± 0.34

NKPTMSFKDYIQERSDPVEQGKPV [ETS2]
protein stability index [1]: 4.75 ± 0.23
protein stability index [2]: 4.83 ± 0.26

NKSVTLYTVKDKATGEVLGQFYLD [NLN]
protein stability index [1]: 2.13 ± 0.3

NKWTVQYNVSPLSWNVAVKFLMAR [PTPN9]
protein stability index [1]: 2.47 ± 0.54
protein stability index [2]: 2.15 ± 0.38

NLLESKADGIEVSYNACGVLSHIM [ZER1]
protein stability index [1]: 2.25 ± 0.08
protein stability index [2]: 2.31 ± 0.28

NLQCLYCEKTFRDKNTLKDHMRKK [ZNF277]
protein stability index [1]: 3.29 ± 0.42
protein stability index [2]: 3.39 ± 0.66

NNLAASQLKLDHYRAALRSCSLVL [FKBP8]
protein stability index [1]: 2.62 ± 0.11
protein stability index [2]: 2.35 ± 0.27

NNWDKWMAKKHKKIRLRCQKGIPP [TBC1D10A]
protein stability index [1]: 2.74 ± 0.24
protein stability index [2]: 3.1 ± 0.12

NQLILTASADRTVIVWDGDTTRQV [WDR41]
protein stability index [1]: 2.79 ± 0.2
protein stability index [2]: 3.12 ± 0.2

NQPTRFGKLLLRLPSLRTVSSSVI [NR2F2]
protein stability index [1]: 2.44 ± 0.24
protein stability index [2]: 2.5 ± 0.2

NRDSSMKLSFRARAYGFRGPGPQL [CHGA]
protein stability index [1]: 2.44 ± 0.28
protein stability index [2]: 2.47 ± 0.42

NRGLILYRLGYFDDALEDFKKVLD [TTC32]
protein stability index [1]: 2.05 ± 0.59
protein stability index [2]: 2.24 ± 0.14

NRLASLQQENKVLKIELETYKLKC [CCDC6]
protein stability index [1]: 2.89 ± 0.28
protein stability index [2]: 3.23 ± 0.21

NRLMLAVRDMMANFHLNDLEAPHE [TCF25]
protein stability index [1]: 2.5 ± 0.42
protein stability index [2]: 2.42 ± 0.24

NRQTFVNSAIRFLRKYSFDGLDLD [CHIT1]
protein stability index [1]: 1.99 ± 0.27
protein stability index [2]: 2.48 ± 0.22

NSLWKKNKTICKERLQILCFFLLI [NLN]
protein stability index [1]: 2.9 ± 0.4
protein stability index [2]: 2.4 ± 0.42

NTDVSMENMVTVGFFSCMGTLCIG [KCNK9]
protein stability index [1]: 2.81 ± 0.52
protein stability index [2]: 2.8 ± 0.61

NTPFQLSIAPPEAEGVVLSDSPDA [PPTC7]
protein stability index [1]: 5.41 ± 0.15
protein stability index [2]: 5.37 ± 0.18

NTTEELEALITDPDEMRMQALLIR [FEM1A]
protein stability index [1]: 3.93 ± 0.29
protein stability index [2]: 3.86 ± 0.27

NVEDEAETKKVLGLQDTITAELVV [PALM]
protein stability index [1]: 4.3 ± 0.28
protein stability index [2]: 4.25 ± 0.18
